Test results published in publication PMC12063641.
Several values for one entry are separate records, joined by “and”; a condition that tells them apart may be missing. Equal entries are not always repeated.

Assays:
[1] = biological target: HIV-1 NL4-3 Gag polyprotein precursor Pr55Gag with MA-L20K/E73K/A82T, uncleaved in immature VLPs (PR-D25N) (HIV-1 (NL4-3)); assay: cryo-EM structure
[2] = biological target: HIV-1 NL4-3 matrix protein p17 (MA) L20K, in mature virions or VLPs (HIV-1 (NL4-3)); assay: SDS-resistant oligomer bands on SDS-PAGE and Western blot
[3] = biological target: HIV-1 NL4-3 matrix protein p17 (MA) L20K/E73K/A82T, in mature virions or VLPs (HIV-1 (NL4-3)); assay: as above
[4] = biological target: purified recombinant MA L20K/E73K/A82T mutant protein (HIV-1); assay: SDS-PAGE of purified protein (SDS-resistant oligomer bands)

HIV-1 NL4-3 Gag polyprotein precursor Pr55Gag with MA-L20K/E73K/A82T, uncleaved in immature VLPs (PR-D25N) (natural protein)
stoichiometry N [1]: 3 and 6

HIV-1 NL4-3 matrix protein p17 (MA) L20K, in mature virions or VLPs (natural protein)
stoichiometry N [2]: 2 and 3

HIV-1 NL4-3 matrix protein p17 (MA) L20K/E73K/A82T, in mature virions or VLPs (natural protein)
stoichiometry N [3]: 2 and 3

purified recombinant MA L20K/E73K/A82T mutant protein (domain or fragment)
stoichiometry N [4]: 2 and 3
